Results as given in US20240209076A1 (KODIAK SCIENCES, published 2024).

molecular target: human IL-6 (human, UniProt P05231 30-212); test: SPR (Biacore), supernatant antibody on Protein A chip, IL-6 flowed, 37 C
Procedure: Antibodies were captured on a Protein A chip (GE) by injecting 1:20 cell supernatant dilutions at 10 μL/min for 60 seconds. […] The sensor chip was regenerated by a 60 seconds injection of 10 mM Glycine pH 1.7 at the flow rate of 50 μL/min. […] For this setup, 1 μg/mL of purified antibody was injected over a Protein A chip at 10 μL/min for 25 seconds. […] The sensor chip was regenerated by a 60 seconds injection of 10 mM Glycine pH 1.7 at flow rate of 50 μL/min. Data analysis for supernatant and purified samples were performed using BIAevaluation software (GE). All sensorgrams were double reference subtracted and fit using a 1:1 Langmuir binding model.

human IL-6, sequence (P05231 30-212 limits assumed): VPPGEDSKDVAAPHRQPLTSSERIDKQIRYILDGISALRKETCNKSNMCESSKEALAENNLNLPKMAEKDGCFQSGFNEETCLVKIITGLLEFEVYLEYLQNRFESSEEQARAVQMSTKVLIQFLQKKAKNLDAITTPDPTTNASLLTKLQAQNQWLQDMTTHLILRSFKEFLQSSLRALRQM

Row | Binder | Kd | koff | kon
1 | anti-IL-6 antibody, heavy chain I51H, G66D / light chain M32L, M50D, N52S, M88Q (antibody, human IgG1, V domains shown, Human IgG1) VH: EVQLVESGGGLVQPGGSLRLSCAASGFTFSPFAMSWVRQAPGKGLEWVAKHSPGGSWTYYSDTVTDRFTFSLDTSKSTAYLQMNSLRAEDTAVYYCARQLWGYYALDIWGQGTLVTVSS VL: DIQLTQSPSSLSASVGDRVTITCSASISVSYLYWYQQKPGKAPKLLIYDDSSLASGVPSRFSGSGSGTDFTLTISSLQPEDFATYYCQQWSGYPYTFGQGTKVEIK | 0.5 nM | 0.00104 s⁻¹ | 2.07e+06 M⁻¹ s⁻¹
2 | anti-IL-6 antibody, heavy chain I51S, G66D / light chain M32L, M50D, N52S, M88Q (antibody, human IgG1, V domains shown, Human IgG1) VH: EVQLVESGGGLVQPGGSLRLSCAASGFTFSPFAMSWVRQAPGKGLEWVAKSSPGGSWTYYSDTVTDRFTFSLDTSKSTAYLQMNSLRAEDTAVYYCARQLWGYYALDIWGQGTLVTVSS VL: DIQLTQSPSSLSASVGDRVTITCSASISVSYLYWYQQKPGKAPKLLIYDDSSLASGVPSRFSGSGSGTDFTLTISSLQPEDFATYYCQQWSGYPYTFGQGTKVEIK | 0.217 nM | 0.000401 s⁻¹ | 1.85e+06 M⁻¹ s⁻¹
3 | anti-IL-6 antibody, heavy chain I51T, G66D / light chain M32L, M50D, N52S, M88Q (antibody, human IgG1, V domains shown, Human IgG1) VH: EVQLVESGGGLVQPGGSLRLSCAASGFTFSPFAMSWVRQAPGKGLEWVAKTSPGGSWTYYSDTVTDRFTFSLDTSKSTAYLQMNSLRAEDTAVYYCARQLWGYYALDIWGQGTLVTVSS VL: DIQLTQSPSSLSASVGDRVTITCSASISVSYLYWYQQKPGKAPKLLIYDDSSLASGVPSRFSGSGSGTDFTLTISSLQPEDFATYYCQQWSGYPYTFGQGTKVEIK | 0.233 nM | 0.000478 s⁻¹ | 2.05e+06 M⁻¹ s⁻¹
4 | anti-IL-6 antibody, heavy chain I51R, G66D / light chain M32L, M50D, N52S, M88Q (antibody, human IgG1, V domains shown, Human IgG1) VH: EVQLVESGGGLVQPGGSLRLSCAASGFTFSPFAMSWVRQAPGKGLEWVAKRSPGGSWTYYSDTVTDRFTFSLDTSKSTAYLQMNSLRAEDTAVYYCARQLWGYYALDIWGQGTLVTVSS VL: DIQLTQSPSSLSASVGDRVTITCSASISVSYLYWYQQKPGKAPKLLIYDDSSLASGVPSRFSGSGSGTDFTLTISSLQPEDFATYYCQQWSGYPYTFGQGTKVEIK | 0.0357 nM | 5.8e-05 s⁻¹ | 1.63e+06 M⁻¹ s⁻¹
5 | anti-IL-6 antibody, heavy chain I51Q, G66D / light chain M32L, M50D, N52S, M88Q (antibody, human IgG1, V domains shown, Human IgG1) VH: EVQLVESGGGLVQPGGSLRLSCAASGFTFSPFAMSWVRQAPGKGLEWVAKQSPGGSWTYYSDTVTDRFTFSLDTSKSTAYLQMNSLRAEDTAVYYCARQLWGYYALDIWGQGTLVTVSS VL: DIQLTQSPSSLSASVGDRVTITCSASISVSYLYWYQQKPGKAPKLLIYDDSSLASGVPSRFSGSGSGTDFTLTISSLQPEDFATYYCQQWSGYPYTFGQGTKVEIK | 0.575 nM | 0.00113 s⁻¹ | 1.96e+06 M⁻¹ s⁻¹
6 | anti-IL-6 antibody, heavy chain I51Y, G66D / light chain M32L, M50D, N52S, M88Q (antibody, human IgG1, V domains shown, Human IgG1) VH: EVQLVESGGGLVQPGGSLRLSCAASGFTFSPFAMSWVRQAPGKGLEWVAKYSPGGSWTYYSDTVTDRFTFSLDTSKSTAYLQMNSLRAEDTAVYYCARQLWGYYALDIWGQGTLVTVSS VL: DIQLTQSPSSLSASVGDRVTITCSASISVSYLYWYQQKPGKAPKLLIYDDSSLASGVPSRFSGSGSGTDFTLTISSLQPEDFATYYCQQWSGYPYTFGQGTKVEIK | 4.04 nM | 0.0247 s⁻¹ | 6.1e+06 M⁻¹ s⁻¹
7 | anti-IL-6 antibody, heavy chain I51V, G66D / light chain M32L, M50D, N52S, M88Q (antibody, human IgG1, V domains shown, Human IgG1) VH: EVQLVESGGGLVQPGGSLRLSCAASGFTFSPFAMSWVRQAPGKGLEWVAKVSPGGSWTYYSDTVTDRFTFSLDTSKSTAYLQMNSLRAEDTAVYYCARQLWGYYALDIWGQGTLVTVSS VL: DIQLTQSPSSLSASVGDRVTITCSASISVSYLYWYQQKPGKAPKLLIYDDSSLASGVPSRFSGSGSGTDFTLTISSLQPEDFATYYCQQWSGYPYTFGQGTKVEIK | 1.11 nM | 0.00195 s⁻¹ | 1.76e+06 M⁻¹ s⁻¹
8 | anti-IL-6 antibody, heavy chain I51W, G66D / light chain M32L, M50D, N52S, M88Q (antibody, human IgG1, V domains shown, Human IgG1) VH: EVQLVESGGGLVQPGGSLRLSCAASGFTFSPFAMSWVRQAPGKGLEWVAKWSPGGSWTYYSDTVTDRFTFSLDTSKSTAYLQMNSLRAEDTAVYYCARQLWGYYALDIWGQGTLVTVSS VL: DIQLTQSPSSLSASVGDRVTITCSASISVSYLYWYQQKPGKAPKLLIYDDSSLASGVPSRFSGSGSGTDFTLTISSLQPEDFATYYCQQWSGYPYTFGQGTKVEIK | 4.84 nM | 0.00383 s⁻¹ | 791000 M⁻¹ s⁻¹
9 | anti-IL-6 antibody, heavy chain S35D, G66D / light chain M32L, M50D, N52S, M88Q (antibody, human IgG1, V domains shown, Human IgG1) VH: EVQLVESGGGLVQPGGSLRLSCAASGFTFSPFAMDWVRQAPGKGLEWVAKISPGGSWTYYSDTVTDRFTFSLDTSKSTAYLQMNSLRAEDTAVYYCARQLWGYYALDIWGQGTLVTVSS VL: DIQLTQSPSSLSASVGDRVTITCSASISVSYLYWYQQKPGKAPKLLIYDDSSLASGVPSRFSGSGSGTDFTLTISSLQPEDFATYYCQQWSGYPYTFGQGTKVEIK | 0.753 nM | 0.00177 s⁻¹ | 2.35e+06 M⁻¹ s⁻¹
10 | anti-IL-6 antibody, heavy chain I51L, G66D / light chain M32L, M50D, N52S, M88Q (antibody, human IgG1, V domains shown, Human IgG1) VH: EVQLVESGGGLVQPGGSLRLSCAASGFTFSPFAMSWVRQAPGKGLEWVAKLSPGGSWTYYSDTVTDRFTFSLDTSKSTAYLQMNSLRAEDTAVYYCARQLWGYYALDIWGQGTLVTVSS VL: DIQLTQSPSSLSASVGDRVTITCSASISVSYLYWYQQKPGKAPKLLIYDDSSLASGVPSRFSGSGSGTDFTLTISSLQPEDFATYYCQQWSGYPYTFGQGTKVEIK | 0.98 nM | 0.00161 s⁻¹ | 1.64e+06 M⁻¹ s⁻¹
11 | anti-IL-6 antibody, heavy chain I51K, G66D / light chain M32L, M50D, N52S, M88Q (antibody, human IgG1, V domains shown, Human IgG1) VH: EVQLVESGGGLVQPGGSLRLSCAASGFTFSPFAMSWVRQAPGKGLEWVAKKSPGGSWTYYSDTVTDRFTFSLDTSKSTAYLQMNSLRAEDTAVYYCARQLWGYYALDIWGQGTLVTVSS VL: DIQLTQSPSSLSASVGDRVTITCSASISVSYLYWYQQKPGKAPKLLIYDDSSLASGVPSRFSGSGSGTDFTLTISSLQPEDFATYYCQQWSGYPYTFGQGTKVEIK | 0.349 nM | 0.000601 s⁻¹ | 1.72e+06 M⁻¹ s⁻¹
12 | anti-IL-6 antibody, heavy chain S35A, G66D / light chain M32L, M50D, N52S, M88Q (antibody, human IgG1, V domains shown, Human IgG1) VH: EVQLVESGGGLVQPGGSLRLSCAASGFTFSPFAMAWVRQAPGKGLEWVAKISPGGSWTYYSDTVTDRFTFSLDTSKSTAYLQMNSLRAEDTAVYYCARQLWGYYALDIWGQGTLVTVSS VL: DIQLTQSPSSLSASVGDRVTITCSASISVSYLYWYQQKPGKAPKLLIYDDSSLASGVPSRFSGSGSGTDFTLTISSLQPEDFATYYCQQWSGYPYTFGQGTKVEIK | 0.657 nM | 0.00126 s⁻¹ | 1.93e+06 M⁻¹ s⁻¹

More lines, now with the values ahead:

Row | Kd | koff | kon | Binder
13 | 2.64 nM | 0.00346 s⁻¹ | 1.31e+06 M⁻¹ s⁻¹ | anti-IL-6 antibody, heavy chain S35K, G66D / light chain M32L, M50D, N52S, M88Q (antibody, human IgG1, V domains shown, Human IgG1) VH: EVQLVESGGGLVQPGGSLRLSCAASGFTFSPFAMKWVRQAPGKGLEWVAKISPGGSWTYYSDTVTDRFTFSLDTSKSTAYLQMNSLRAEDTAVYYCARQLWGYYALDIWGQGTLVTVSS VL: DIQLTQSPSSLSASVGDRVTITCSASISVSYLYWYQQKPGKAPKLLIYDDSSLASGVPSRFSGSGSGTDFTLTISSLQPEDFATYYCQQWSGYPYTFGQGTKVEIK
14 | 27.1 nM | 0.00548 s⁻¹ | 202000 M⁻¹ s⁻¹ | anti-IL-6 antibody, heavy chain S35P, G66D / light chain M32L, M50D, N52S, M88Q (antibody, human IgG1, V domains shown, Human IgG1) VH: EVQLVESGGGLVQPGGSLRLSCAASGFTFSPFAMPWVRQAPGKGLEWVAKISPGGSWTYYSDTVTDRFTFSLDTSKSTAYLQMNSLRAEDTAVYYCARQLWGYYALDIWGQGTLVTVSS VL: DIQLTQSPSSLSASVGDRVTITCSASISVSYLYWYQQKPGKAPKLLIYDDSSLASGVPSRFSGSGSGTDFTLTISSLQPEDFATYYCQQWSGYPYTFGQGTKVEIK
15 | 1.62 nM | 0.00147 s⁻¹ | 904000 M⁻¹ s⁻¹ | anti-IL-6 antibody, heavy chain S35I, G66D / light chain M32L, M50D, N52S, M88Q (antibody, human IgG1, V domains shown, Human IgG1) VH: EVQLVESGGGLVQPGGSLRLSCAASGFTFSPFAMIWVRQAPGKGLEWVAKISPGGSWTYYSDTVTDRFTFSLDTSKSTAYLQMNSLRAEDTAVYYCARQLWGYYALDIWGQGTLVTVSS VL: DIQLTQSPSSLSASVGDRVTITCSASISVSYLYWYQQKPGKAPKLLIYDDSSLASGVPSRFSGSGSGTDFTLTISSLQPEDFATYYCQQWSGYPYTFGQGTKVEIK
16 | 3.17 nM | 0.00484 s⁻¹ | 1.53e+06 M⁻¹ s⁻¹ | anti-IL-6 antibody, heavy chain S35F, G66D / light chain M32L, M50D, N52S, M88Q (antibody, human IgG1, V domains shown, Human IgG1) VH: EVQLVESGGGLVQPGGSLRLSCAASGFTFSPFAMFWVRQAPGKGLEWVAKISPGGSWTYYSDTVTDRFTFSLDTSKSTAYLQMNSLRAEDTAVYYCARQLWGYYALDIWGQGTLVTVSS VL: DIQLTQSPSSLSASVGDRVTITCSASISVSYLYWYQQKPGKAPKLLIYDDSSLASGVPSRFSGSGSGTDFTLTISSLQPEDFATYYCQQWSGYPYTFGQGTKVEIK
17 | 0.867 nM | 0.00189 s⁻¹ | 2.18e+06 M⁻¹ s⁻¹ | anti-IL-6 antibody, heavy chain S35E, G66D / light chain M32L, M50D, N52S, M88Q (antibody, human IgG1, V domains shown, Human IgG1) VH: EVQLVESGGGLVQPGGSLRLSCAASGFTFSPFAMEWVRQAPGKGLEWVAKISPGGSWTYYSDTVTDRFTFSLDTSKSTAYLQMNSLRAEDTAVYYCARQLWGYYALDIWGQGTLVTVSS VL: DIQLTQSPSSLSASVGDRVTITCSASISVSYLYWYQQKPGKAPKLLIYDDSSLASGVPSRFSGSGSGTDFTLTISSLQPEDFATYYCQQWSGYPYTFGQGTKVEIK
18 | 0.609 nM | 0.000781 s⁻¹ | 1.28e+06 M⁻¹ s⁻¹ | anti-IL-6 antibody, heavy chain S35G, G66D / light chain M32L, M50D, N52S, M88Q (antibody, human IgG1, V domains shown, Human IgG1) VH: EVQLVESGGGLVQPGGSLRLSCAASGFTFSPFAMGWVRQAPGKGLEWVAKISPGGSWTYYSDTVTDRFTFSLDTSKSTAYLQMNSLRAEDTAVYYCARQLWGYYALDIWGQGTLVTVSS VL: DIQLTQSPSSLSASVGDRVTITCSASISVSYLYWYQQKPGKAPKLLIYDDSSLASGVPSRFSGSGSGTDFTLTISSLQPEDFATYYCQQWSGYPYTFGQGTKVEIK
19 | 2.59 nM | 0.00243 s⁻¹ | 942000 M⁻¹ s⁻¹ | anti-IL-6 antibody, heavy chain S35L, G66D / light chain M32L, M50D, N52S, M88Q (antibody, human IgG1, V domains shown, Human IgG1) VH: EVQLVESGGGLVQPGGSLRLSCAASGFTFSPFAMLWVRQAPGKGLEWVAKISPGGSWTYYSDTVTDRFTFSLDTSKSTAYLQMNSLRAEDTAVYYCARQLWGYYALDIWGQGTLVTVSS VL: DIQLTQSPSSLSASVGDRVTITCSASISVSYLYWYQQKPGKAPKLLIYDDSSLASGVPSRFSGSGSGTDFTLTISSLQPEDFATYYCQQWSGYPYTFGQGTKVEIK
